Measurements published in patent US10745461B2, “Pulsed introduction of low-dose RANKL as a therapy for diet-induced atherosclerosis” (Saint Louis University, priority 2015, dated 2020).
“Also recorded” adds a separate entry of the source.

Key:
[1] = system: FoxP3+ CD8 T-cells (TcREG); assay: RANKL dose finding: FoxP3+ CD8 T-cells in bone marrow of FoxP3-GFP reporter mice; assay type: in vivo; settings: two consecutive days, 50 hours after first dose, lowest dose 0.125 mg/kg
Procedure: FIGS. 1A, 1B and 1C indicate that TcREG are induced by activated osteoclasis. […] In the absence of RANK L treatment, very low level of conversion was observed after three days. […] ZA was administered intravenously one week prior to adoptive transfer of CD8 T-cells.
It was first determined the dose of RANKL that produced the maximal number FoxP3^+ CD8 T-cells in the bone marrow. RANKL was administered into FoxP3-GFP reporter mice at various doses for two consecutive days. Fifty hours after first dose, the mice were sacrificed and the numbers of CD8 T-cells that were GFP positive cells in the bone marrow were measured. […] The increased levels of FoxP3 in the bone marrow could either be due to recruitment of TcREG to the bone marrow or induction of FoxP3 expression in cells that were FoxP3 negative. To test for induction FACS sorted the GFP negative population of CD8 (Thy 1.2+ that were CD44 negative or naïve) from the spleens and bone marrow to high purity (FIG. 1C first panel) and adoptively transferred them into congenically marked (Thy 1.1) OT-I Rag^−/− mice. […] In the absence of RANKL administration low levels […] CD8 T-cell were detected (FIGS. 1B and C second panel), but RANKL administration (0.125 mg/kg) yielded ˜1% […] Thy 1.2 T-cells (FIGS. 1B and 1C third panel). […]

[2] = system: FoxP3 induction in OT-I CD8 T-cells by osteoclasts; assay: TcREG (FoxP3) induction in OT-I CD8 T-cells co-cultured with bone marrow-derived osteoclasts; assay type: cell-based, mice; settings: 10 ng/ml or 20 ng/ml TNFα, OVA
Procedure: It was also determined that IL-17 and TNFα suppresses TcREG induction by osteoclasts. […] Another possibility is that loss of estrogen leads to increased production of the pro-inflammatory cytokines by T-cells that increase osteoclast activity. Without being limited to any method of operation, it is actually expected that in the presence of pro-inflammatory cytokines osteoclasts fail to induce TcREG. As estrogen depletion lead to greater number of osteoclasts because of a decreased Fas ligand expression, the loss of TcREG induction and increased osteoclast numbers would tip the balance towards increased osteoclast resorption and net bone loss. To test fir this possibility, OC-iTcREG induction was measured in the presence of IL-17 and TNFα. […] To understand the underlying mechanism of how TNFα affects osteoclasts' ability to induce TcREG, the signals provided by osteoclasts to induce FoxP3 in the CD8 T-cells were investigated along with if these signals were affected by […].
The most common and well-studied costimulatory signals on antigen-presenting cells are CD80 (B7.1) and CD86 (B7.2). As CD80/CD86 double knockout mice are commercially available, osteoclasts were generated from bone marrow precursors of these mice. The CD80/CD86 null osteoclasts (as well as wild-type controls) were then used to prime OT-I T-cells in the presence and absence of antigen. […] OT-I CD8 T-cells activated by CD80/CD86 null osteoclasts produced IL-6, IL-2 and IFN-γ to levels indistinguishable from wild-type mice (FIG. 4B). Having ruled out CD80/CD86 as the costimulatory molecules, an osteoclast microarray dataset was queried for other costimulatory molecules expressed by osteoclasts. Osteoclasts that express CD200 and c-Mer were found. The role of CD200 was chosen for testing based on the phenotype of CD200^−/− mice and the reported role for CD200 in regulating TcREG.
The most, well characterized regulator of FoxP3 in T-cells is TGFβ. It has been previously shown that neutralization or addition of TGFβ has no effect on the induction of TcREG. Therefore identification of other pathways that can regulate the FoxP3 promoter in T-cells was sought. A number of previous studies have identified that the Notch signaling contributes to FoxP3 induction. To test if Notch signaling is important for TcREG induction by osteoclasts, the γ-Secretase inhibitor DAPT was initially used. Ligation of the Notch receptor by its ligand leads to cleavage of Notch by γ-secretase. […] Next, we identified the Notch ligands expressed in osteoclasts using reverse-transcription followed by PCR. […] Of the four, the osteoclast-precursors (bone marrow cells treated with M-CSF but not RANKL) express all of the ligands except DLL4 (FIG. 5C). To assess the role of DLL4 in TcREG (soluble) DLL4-Fc was added to OT-I CD8 T-cells prior to co-culturing with osteoclasts. […] To assess the role of DLL4 in vivo the induction experiments as described in FIG. 1 were performed: GFP negative (polyclonal) CD8 T-cells were purified by cell sorting and transferred into OT-II Rag^−/− mice. Two hours prior to RANKL treatment, DLL4-Fc or a control IgG1-Fc, were injected intravenously into the recipient mice, As described for FIG. 1, RANKL (0.125 mg/kg) was then administered on two consecutive days.
DLL-4 expression is repressed in the presence of […] and IL-17 but can be de-repressed by RANKL. […]

B1: receptor activator of NF-κB ligand (protein, UniProt O35235 139-316, looked up)
Tumor necrosis factor ligand …: FSGAPAMMEGSWLDVAQRGKPEAQPFAHLTINAASIPSGSHKVTLSSWYHDRGWAKISNMTLSNGKLRVNQDGFYYLYANICFRHHETSGSVPTDYLQLMVYVVKTSIKIPSSHNLMKGGSTKNWSGNSEFHFYSINVGGFFKLRAGEEISIQVSNPSLLDPDQDATYFGAFKVQDID
modifications: GST tag
[1]
  proportion of FoxP3+ CD8 T cells in the bone marrow as a function of RANKL dose: induced the largest proportion of FoxP3^+ CD8 T cells
[2]
  restoration of TcREG induction by additional RANKL in the presence of TNFα: restores induction of TcREG; also recorded: the induction of TcREG was also restored
